Results taken from paper doi:10.1101/2021.04.15.439997 (bioRxiv, 2021).

Target: the molecule itself
Experiment: SEC-MALS

B1: Strep-tagged glucose-6-phosphate dehydrogenase (G6PDH) from Synechocystis (enzyme)
chain: not shown
With B1 the “stoichiometry N” value was 4.
